For this assay, the target named is Hepatitis C virus p7 protein from genotype 5a (EUH1480 strain) (Hepatitis C virus genotype 5a (EUH1480 strain)). Kind of assay: SEC. On the technique in general: In gel filtration, larger molecules generally elute earlier.

For “Hepatitis C virus p7 protein from genotype 5a (EUH1480 strain) (natural protein)”, the stoichiometry N came to 6.

As usually defined, the stoichiometry N is the number of molecules, sites or subunits per partner or assembly.
